The values that follow come from doi:10.1101/2025.10.16.681758 (bioRxiv, 2025).

The subject of data set [1] is aCcr1 (Saccharolobus islandicus REY15A). Put plainly: EMSA.
The subject of data set [2] is aCcr3 (Saccharolobus islandicus REY15A). The experiment in a line: EMSA. For orientation: A gel shift assay detects complexes by their altered migration in electrophoresis.
The subject of data set [3] is aCcr2 (Saccharolobus islandicus REY15A). Put plainly: EMSA.
Data set [4] deals with the molecule itself. Put plainly: SEC. Background: In gel filtration, larger molecules generally elute earlier.

Consider PcdvA, for which the Kd stood at 93.5 nM in data set [1], 36 nM in data set [2] and 245 nM in data set [3].

B1: aCcr1 (natural protein, Saccharolobus islandicus REY15A, UniProt F0NBE5 1-58, looked up)
chain: MRVVTFKVEEDLLELLDRYAIKYGLNRSEAIRKAIEKMVRDELSKERVPVARVEKIKL
Regarding B1, the “stoichiometry N” value in data set [4] was determined as 2.

B2: SiRe_0131 (natural protein, Saccharolobus islandicus REY15A, UniProt F0NG80 1-74, looked up)
chain: MEKIVKVNDTTYILEDERSVVITFKLEENILSMVDEIVKKLGYDYRSDFIRDAIEKYINYLKSSSNNSKMNINE
Consider B2, for which the “stoichiometry N” value in data set [4] came out at 2. MKIITVKLPEQFLEAIDELVNTGRYGSRSEVIRAAIGDFIRKELWVTTEE (natural protein, Saccharolobus islandicus REY15A, UniProt F0NFD7 1-50, looked up) [aCcr3]: in data set [4], the “stoichiometry N” value is 2. Same read-out and setting: the figure for MRKVVSVRLKEDVLRDVDIYTRKLGLNSRTEFIKQAIEFYIKSKS (natural protein, Saccharolobus islandicus REY15A, UniProt F0NI75 1-45, looked up) [SiRe_1373] is 2.

B3: aCcr2 (natural protein, Saccharolobus islandicus REY15A, UniProt F0NEU4 1-57, looked up)
chain: MVRVITFKAEEELLVKLDLFALNSRMSRSEIIRMAIEKYLEEAAGGIRTRDRRLSRQ
As for B3, in data set [4], the “stoichiometry N” value amounted to 2.

A word on the Kd: it is a measure of binding affinity in units of concentration. A low value points to tighter binding. Broadly, the stoichiometry N is the number of molecules, sites or subunits per partner or assembly.
